Results published in patent US10662230B2, “Cyclic RGD cell-binding motif and uses thereof” (Spiber Technologies AB, priority 2015, dated 2020).
“Also recorded” adds a separate entry of the source.

Experiments:
Format in all cases: cell-based
[1] = test system: Human Mesenchymal stem cells; assay: Cell culture on FNCC silk coatings; settings: coating 0.1 mg/ml
Protocol: (§1) After purification, solutions of FNCC-silk protein (SEQ ID NO: 13) were used to coat cell culture plates (Sarstedt, hydrophobic plates for suspension cells). Briefly, the protein solutions were diluted to 0.1 mg/ml in Tris buffer, and allowed to incubate at room temperature for 30 minutes before removal and wash.
(§2) Cells were harvested using trypsination (TrpLE) and seeded onto the FNcc-silk coatings at suitable cell density (3-10 000 cells/cm2). Cell growth was monitored with Alamar Blue cell viability assay (Molecular Probes) regularly (every 2-3 day). At the end point, after 7-14 days, Live/dead staining was performed.

HaCaT Keratinocytes = assay: Cell culture on FNCC silk coatings; settings: coating 0.1 mg/ml
Protocol: as §1, §2

[2] = test system: Human Skeletal Muscle Satellite Cells; assay: Cell culture on FNCC silk coatings; settings: coating 0.1 mg/ml
Protocol: as §1, §2

[3] = test system: Mouse Mesenchymal stem cells; assay: Cell culture on FNCC silk coatings; settings: coating 0.1 mg/ml
Protocol: as §1, §2

Human Dermal fibroblasts = assay: Cell culture on FNCC silk coatings; settings: coating 0.1 mg/ml
Protocol: as §1, §2

[4] = test system: Human Dermal Microvascular Endothelial Cells; assay: Cell culture on FNCC silk coatings; settings: coating 0.1 mg/ml
Protocol: as §1, §2

[5] = test system: MIN6-m9 pancreatic cell line; assay: Cell culture on FNCC silk coatings; settings: coating 0.1 mg/ml
Protocol: as §1, §2

[6] = test system: Human dermal microvascular endothelial cells (EC); assay: Early attachment assay, endothelial cells on silk films; settings: 1 h adhesion to film
Protocol: Human dermal microvascular endothelial cells (EC), (HDMEC, PromoCell GmbH, Germany) isolated from dermis from adult donor were grown in culture flasks coated with gelatin (Sigma Aldrich) in complete endothelial cell media MV, containing 5% fetal bovine serum (PromoCell GmbH, Germany).
Cells were harvested at passage 3-8, seeded at 20 000/cm^2 and allowed to adhere to the films or controls for 1 h in a cell incubator before gentle washing twice with pre-warmed phosphate buffered saline (PBS) followed by 10 min fixation with 96% ethanol. After three washings in water, cells were stained for 30 min with 0.1% Crystal Violet in H2O. Plates were dried after extensive washing in water.
Attachment and morphology of cells bound to the films obtained in Example 3 were documented by taking micrographs at 2× and 10× magnification in an inverted bright field microscope. The color was then dissolved in 40 μL 20% acetic acid for 10 min, and 35 μL of the solution was transferred to a 384-well plate for optical density measurement at 595 nm (TECAN Infinite M200). Wells with cells fixed without pre-washing was used as positive control. Wells with no cells were used as blank. Experiments were run in hexaplicates and repeated three times.
First, we wanted to investigate how well adherent cells attach and spread on the FNCC-silk (FNCC-4RepCT, SEQ ID NO: 13) compared to linear RGD proteins (RGD-4RepCT, SEQ ID NO: 16) and WT silk proteins (4RepCT, SEQ ID NO: 2) obtained in Example 3. Silk films of the three different variants were prepared in cell culture plates, and human primary endothelial cells (EC), mesenchymal stem cells (MSC) or keratinocytes (KC) were allowed to adhere for 1 h before fixation and staining.

[7] = test system: Normal human epidermal keratinocytes (KC); assay: Formation of focal adhesions (F-actin/vinculin staining), keratinocytes
Protocol: Cells were harvested at passage 3-8, seeded at 3500/cm^2 and allowed to adhere onto films for 20 min, 1 or 3 hours in chamber slides. After gentle washing, cells were fixed with 4% paraformaldehyde, permeabilized with 0.1% Triton X-100 in PBS, and blocked with 1% bovine serum albumin (BSA, AppliChem) in PBS.
Primary antibody were used at the following concentrations in 1% BSA: mouse anti human vinculin (Sigma V9131) at 9.5 μg/ml, mouse-anti human beta1-integrin (activated conformation, clone HUTS-4) at 3.3 μg/mL, or mouse-anti human alpha5-integrin (ligand bound conformation, clone SNAKA-51) at 2.5 μg/mL, both Millipore.
Secondary antibody was AlexaFlour488 goat anti mouse IgG (H+L), cross adsorbed (Invitrogen), used at 1:500. Phalloidin-AlexaFluor594 (Life Technologies) were used at 1:40 to detect filamentous actin. DAPI was used for nuclear staining. Slides were mounted in Fluorescence mounting medium (Dako, Copenhagen).
For microscopic analysis of cell adhesion (formation of focal adhesions and stress fibers), a confocal microscope was used (Carl Zeiss LSM 710) at 10× and 63× magnification.
Quality of focal adhesions were graded from 1-4 regarding presence of small and dim focal adhesion (=1p), small and distinct focal adhesions (=2p), abundant focal adhesions (=3p) and large and bright focal adhesions (=4p), and multiplied with the portion of positive cells expressing this specific type of focal adhesions (0-4, where 0≈none of, 1≈one fourth of, 2≈half of, 3≈three fourths of, and 4≈all of the focal adhesion-positive cells.)
Formation of focal adhesions within the cells was analyzed after 3 h by staining for F-actin in combination with vinculin, which is one of the major components of the focal adhesion complex. Co-staining of F-actin and vinculin is thus a sign of integrin-involved, well established binding of cells to the underlying substrate. Focal adhesions appear as yellow-greenish elongations of the F-actin filaments, often situated close to the cell membrane.
The results from the analysis of formation and characterization of focal adhesions in KC after adherence for 3 h onto films of WT-silk (SEQ ID NO: 2) or silk functionalized with FNCC (SEQ ID NO: 13), FNVS (SEQ ID NO: 15), FNSS (SEQ ID NO: 14) or RGD (SEQ ID NO: 16) is presented in FIG. 7. Slides were scanned with a confocal microscope at 10× for overview (FIG. 7a) and at 63× for details (FIG. 7b). Two types of grading of the focal adhesions in the cells were performed.

B1: FNCC-silk: recombinant spider silk protein 4RepCT with N-terminal cysteine-looped RGD motif CTGRGDSPAC (SEQ ID NO: 10) (protein)
chain: GPNSCTGRGDSPACGSASGQGGYGGLGQGGYGQGAGSSAAAAAAAAAAAAGGQGGQGQGGYGQGSGGSAAAAAAAAAAAAAAAGRGQGGYGQGSGGNAAAAAAAAAAAAAAAGQGGQGGYGRQSQGAGSAAAAAAAAAAAAAAGSGQGGYGGQGQGGYGQSSASASAAASAASTVANSVSRLSSPSAVSRVSSAVSSLVSNGQVNMAALPNIISNISSSVSASAPGASGCEVIVQALLEVITALVQIVSSSSVGYINPSAVNQITNVVANAMAQVMG
modifications: cyclic disulfide loop; Fusion protein; DISULFID (5)..(14)
- growth profile (Alamar Blue) ([1]; 7-14 days): positive growth profile
- viable cells at the end point (Live/dead staining) ([1]; after 7-14 days): > 80%
- growth profile (Alamar Blue) (HaCaT Keratinocytes; 7-14 days): positive growth profile
- viable cells at the end point (Live/dead staining) (HaCaT Keratinocytes; after 7-14 days): > 80%
- growth profile (Alamar Blue) ([2]; 7-14 days): positive growth profile
- viable cells at the end point (Live/dead staining) ([2]; after 7-14 days): > 80%
- growth profile (Alamar Blue) ([3]; 7-14 days): positive growth profile
- viable cells at the end point (Live/dead staining) ([3]; after 7-14 days): > 80%
- growth profile (Alamar Blue) (Human Dermal fibroblasts; 7-14 days): positive growth profile
- viable cells at the end point (Live/dead staining) (Human Dermal fibroblasts; after 7-14 days): > 80%
- growth profile (Alamar Blue) ([4]; 7-14 days): positive growth profile
- viable cells at the end point (Live/dead staining) ([4]; after 7-14 days): > 80%
- growth profile (Alamar Blue) ([5]; 7-14 days): positive growth profile
- viable cells at the end point (Live/dead staining) ([5]; after 7-14 days): > 80%
- attachment seen in micrographs ([6]; crystal violet staining): clear improvement of attachment is seen on the FNCC films compared to both RGD and WT
- OD of crystal violet dissolved from adhered cells (number of bound cells) ([6]; seeding 20 000/cm2): significantly more cells had bound to the FNCC-silk after 1 h compared to WT silk
- OD of crystal violet dissolved from adhered cells (number of bound cells) ([6]; seeding 20 000/cm2, listed as FNCC): Significantly more EC had attached to FNCC also compared to RGD silk
- time after seeding at which prominent focal adhesions appeared [7]: 20 min
- percentage of cells exhibiting focal adhesions ([7]; 3 h adherence, 10× magnification): significant increase in percentage of cells expressing focal adhesions on FNCC-silk, compared to RGD and WT
- quality (grading) of focal adhesions ([7]; 3 h adherence, 63× magnification): tendency of more prominent focal adhesions in cells attached to FNCC-silk compared to the other silk types; also recorded: almost only prominent focal adhesions
